{"source": "the supplement of paper PMC10567573", "parents": {"B1": {"name": "CPXM2 (parent)", "chain": "TASTKNCMVGYDMGATRCDFTLSK"}, "B2": {"name": "GMCL1 (parent)", "chain": "RPDTGDDAAGHGFCYCAGSHKRKR"}}}
{"variants_of": "B1", "experiment": "protein stability index of a GFP-peptide fusion (GPS, HEK-293T) (PSI 1-6); higher = more stable", "details": "c terminus: a fixed tail appended"}
{"variant": "TASTKNCMVGYDMGATCCDFTLSK", "protein stability index": 3.49}
{"variant": "TASTKNCMVGYDMGATTCDFTLSK", "protein stability index": 3.38}
{"variant": "TASTKNCMVGYDMGATGCDFTLSK", "protein stability index": 3.72}
{"variant": "TASTKNCMVGYDMGATFCDFTLSK", "protein stability index": 2.81}
{"variant": "TASTKNCMVGYDMGATECDFTLSK", "protein stability index": 3.79}
{"variant": "TASTKNCMVGYDMGATACDFTLSK", "protein stability index": 3.87}
{"variant": "TASTKNCMVGYDMGATMCDFTLSK", "protein stability index": 3.07}
{"variant": "TASTKNCMVGYDMGATDCDFTLSK", "protein stability index": 3.96}
{"variant": "TASTKNCMVGYDMGATWCDFTLSK", "protein stability index": 2.13}
{"variant": "TASTKNCMVGYDMGATPCDFTLSK", "protein stability index": 3.57}
{"variant": "TASTKNCMVGYDMGATYCDFTLSK", "protein stability index": 2.63}
{"variant": "TASTKNCMVGYDMGATNCDFTLSK", "protein stability index": 3.32}
{"variant": "TASTKNCMVGYDMGATRGDFTLSK", "protein stability index": 1.87}
{"variant": "TASTKNCMVGYDMGATRFDFTLSK", "protein stability index": 2.42}
{"variant": "TASTKNCMVGYDMGATRQDFTLSK", "protein stability index": 1.75}
{"variant": "TASTKNCMVGYDMGATRPDFTLSK", "protein stability index": 3.2}
{"variant": "TASTKNCMVGYDMGATRNDFTLSK", "protein stability index": 2.43}
{"variant": "TASTKNCMVGYDMGATRTDFTLSK", "protein stability index": 2.66}
{"variant": "TASTKNCMVGYDMGATREDFTLSK", "protein stability index": 3.53}
{"variant": "TASTKNCMVGYDMGATRIDFTLSK", "protein stability index": 2.84}
{"variant": "TASTKNCMVGYDMGATRLDFTLSK", "protein stability index": 2.4}
{"variant": "TASTKNCMVGYDMGATRMDFTLSK", "protein stability index": 2.59}
{"variant": "TASTKNCMVGYDMGATRRDFTLSK", "protein stability index": 2.68}
{"variant": "TASTKNCMVGYDMGATRVDFTLSK", "protein stability index": 2.19}
{"variant": "TASTKNCMVGYDMGATRHDFTLSK", "protein stability index": 2.8}
{"variant": "TASTKNCMVGYDMGATRSDFTLSK", "protein stability index": 2.27}
{"variant": "TASTKNCMVGYDMGATRADFTLSK", "protein stability index": 2.04}
{"variant": "TASTKNCMVGYDMGATRYDFTLSK", "protein stability index": 2.46}
{"variant": "TASTKNCMVGYDMGATRKDFTLSK", "protein stability index": 3.57}
{"variant": "TASTKNCMVGYDMGATRWDFTLSK", "protein stability index": 3.08}
{"variant": "TASTKNCMVGYDMGATRDDFTLSK", "protein stability index": 2.98}
{"variants_of": "B2", "experiment": "protein stability index of a GFP-peptide fusion (GPS, HEK-293T) (PSI 1-6); higher = more stable", "details": "c terminus: a fixed tail appended"}
{"variant": "QPDTGDDAAGHGFCYCAGSHKRKR", "protein stability index": 2.98}
{"variant": "GPDTGDDAAGHGFCYCAGSHKRKR", "protein stability index": 3.97}
{"variant": "KPDTGDDAAGHGFCYCAGSHKRKR", "protein stability index": 2.99}
{"variant": "MPDTGDDAAGHGFCYCAGSHKRKR", "protein stability index": 3.16}
{"variant": "EPDTGDDAAGHGFCYCAGSHKRKR", "protein stability index": 2.84}
{"variant": "FPDTGDDAAGHGFCYCAGSHKRKR", "protein stability index": 1.76}
{"variant": "NPDTGDDAAGHGFCYCAGSHKRKR", "protein stability index": 2.83}
{"variant": "PPDTGDDAAGHGFCYCAGSHKRKR", "protein stability index": 2.71}
{"variant": "APDTGDDAAGHGFCYCAGSHKRKR", "protein stability index": 2.89}
{"variant": "TPDTGDDAAGHGFCYCAGSHKRKR", "protein stability index": 2.97}
{"variant": "DPDTGDDAAGHGFCYCAGSHKRKR", "protein stability index": 2.92}
{"variant": "SPDTGDDAAGHGFCYCAGSHKRKR", "protein stability index": 2.96}
{"variant": "LPDTGDDAAGHGFCYCAGSHKRKR", "protein stability index": 3.2}
{"variant": "IPDTGDDAAGHGFCYCAGSHKRKR", "protein stability index": 2.34}
{"variant": "HPDTGDDAAGHGFCYCAGSHKRKR", "protein stability index": 3.08}
{"variant": "CPDTGDDAAGHGFCYCAGSHKRKR", "protein stability index": 2.99}
